In patent US20220153862A1 (CSPC MEGALITH BIOPHARMACEUTICAL, published 2022):
Residue numbers refer to the chain shown, from its start.

T1: TROP2 expressed on human cancer cell lines (human, UniProt P09758 27-323)
T1 sequence: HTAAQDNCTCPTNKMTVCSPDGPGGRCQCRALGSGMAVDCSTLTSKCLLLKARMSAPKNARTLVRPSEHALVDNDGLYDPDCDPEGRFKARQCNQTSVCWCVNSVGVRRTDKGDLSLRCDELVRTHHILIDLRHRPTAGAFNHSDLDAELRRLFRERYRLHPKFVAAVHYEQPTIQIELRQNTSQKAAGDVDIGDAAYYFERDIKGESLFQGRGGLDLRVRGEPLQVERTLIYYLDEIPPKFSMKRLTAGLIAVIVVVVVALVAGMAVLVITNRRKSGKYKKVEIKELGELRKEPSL

T2: human Trophoblast cell surface antigen 2 (TROP2) (human, UniProt P09758 27-274, limits assumed)
T2 construct: Analyte in the SPR experiments and immunogen; also called human TROP2
T2 sequence: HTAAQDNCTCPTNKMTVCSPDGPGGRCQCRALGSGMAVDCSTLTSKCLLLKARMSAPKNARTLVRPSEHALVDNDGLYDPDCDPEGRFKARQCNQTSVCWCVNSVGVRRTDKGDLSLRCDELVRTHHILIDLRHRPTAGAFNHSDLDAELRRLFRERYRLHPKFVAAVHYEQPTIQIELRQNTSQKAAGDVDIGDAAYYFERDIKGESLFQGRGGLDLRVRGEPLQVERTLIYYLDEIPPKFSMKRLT

B1: HC4/LC5 (antibody, human IgG1, kappa, V domains shown)
VH: QVQLVQSGAEVKKPGSSVKVSCKASGYTFTDYSINWVRQAPGQGLEWMGVISTYYGDASYNQKFKGRVTITADESTSTAYMELSSLRSEDTAVYYCARYGDGYNQFDYWGQGTLVTVSS
VL: DIQMTQSPSSLSASVGDRVTITCRVSESVDSYGNNFMHWYQQKPGKAPKLLIYRASNLESGVPSRFSGSGSGTDFTFTISSLQPEDIATYYCQQSYEDPYTFGGGTKLEIKR
notes: Humanized anti-TROP2 antibody; also called DP002-HC4LC5; DP002HC4LC5
B2: HC1/LC1 (antibody, human IgG1, kappa, V domains shown)
VH: B1 VH with S16A, I70M, A72T, E74T, S84R, E89D, L114M
VL: DIVMTQSPDSLAVSLGERATINCRVSESVDSYGNNFMHWYQQKPGQPPKLLIYRASNLESGVPDRFSGSGSGTDFTLTISSLQAEDVAVYYCQQSYEDPYTFGQGTKLEIKR
notes: Humanized anti-TROP2 antibody; also called DP002-HC1LC1
B3: biosimilar of the anti-TROP2 antibody sacituzumab (antibody, INN chains, looked up, V domains shown)
VH: QVQLQQSGSELKKPGASVKVSCKASGYTFTNYGMNWVKQAPGQGLKWMGWINTYTGEPTYTDDFKGRFAFSLDTSVSTAYLQISSLKADDTAVYFCARGGFGSSYWYFDVWGQGSLVTVSS
VL: DIQLTQSPSSLSASVGDRVSITCKASQDVSIAVAWYQQKPGKAPKLLIYSASYRYTGVPDRFSGSGSGTDFTLTISSLQPEDFAVYYCQQHYITPLTFGAGTKVEIKR
modifications: biosimilar
B4: anti-TROP2 antibody 17D1 (antibody, V domains shown)
VH: QVQLQQSGAELVRPGVSVKISCKGSGYTFTDYSIHWVKQSHAKSLEWIGLISTYYGDATYTQKFKGKATMTVDKSSSTAYMELARLTSEDSAIYYCALLGAYNYFDYWGQGTTLTVSS
VL: DIVLTQSPASLAVSLGQRATISCRASESVDSYGNSFMHWYQQKPGQPPKLLVYRASNLESGIPARFSGSGSRTDFTLTINPVEADDIATYYCQQSYEDPPTFGGGTKLEIK
notes: Mouse anti-human TROP2 hybridoma antibody
B5: anti-TROP2 antibody 17B6 (antibody, V domains shown)
VH: QVQLQQSGAELVRPGVSVKISCKGSGYTFTDYGMNWVKQSHAKSLEWIGVISTFYGDANYNQKFKGKATMTVDKSSSTAYMELARLTSEDSAIYYCARRGNYDSMDYWGQGTSVTVSS
VL: B4 VL with A9V, S10F, V52I, I87V, A88E, K111E
notes: as for B4

Assays:
[1] = target: T1, TROP2 expressed on human cancer cell …; test: cell-based or functional assay
[2] = target: T2, human Trophoblast cell surface antigen …; test: SPR, TROP2 as analyte
[3] = target: T2, human Trophoblast cell surface antigen …; test: SPR affinity ranking, human TROP2
[4] = target: T1, TROP2 expressed on human cancer cell …; test: cell-based or functional assay; remark: listed apart in the source
[5] = target: human Trophoblast cell surface antigen 2 (TROP2) (human) (UniProt P09758); test: SPR, TROP2 as analyte
[6] = target: T1, TROP2 expressed on human cancer cell …; test: flow cytometry of SKBR3 cells after overnight incubation with the antibody pre-mixed with pHAb-labelled secondary antibody (internalization assay); x axis pHAb-A, y axis Count
Method: FACS experiments were performed to verify that antibodies 1B3, 15D9, 15A10, 17B6, and 17D1 were internalized by SKBR3 cells. SKBR3 is a TROP2-expressing human breast carcinoma cell line. Briefly, 1.2×10⁵ SKBR3 cells were seeded into each 12-well plates and cultured overnight. 300 μL of 20 nM control antibody, 1B3, 15D9, 15A10, 17B6, or 17D1 (in DMEM-10) were mixed with 300 μL 60 nM pHAb-labelled secondary antibody for 15 minutes at room temperature in the dark. The labeled antibodies mixtures were added to the SKBR3 cells and incubated overnight. Following overnight incubation, the SKBR3 cells were trypsinized, washed twice with 1% BSA/PBS, and analyzed via flow cytometry.

Binder | Kd [2] | koff [2] | kon [2] | Kd [3] | koff [3] | kon [3] | binding result [6] | further results
B1 | 18.4 pM | 4.05e-05 s⁻¹ | 2.2e+06 M⁻¹ s⁻¹ | 80.1 pM | 0.000138 s⁻¹ | 1.72e+06 M⁻¹ s⁻¹ | – | IC50 (nM), in vitro cytotoxicity, BxPC-3 cells [1]: > 100 nM; IC50 (nM), in vitro cytotoxicity, HCC1954 cells [1]: > 100 nM; IC50 (nM), in vitro cytotoxicity, NCI-N87 cells [1]: > 100 nM
B2 | 66.2 pM | 0.00013 s⁻¹ | 1.97e+06 M⁻¹ s⁻¹ | 64.5 pM | 0.000105 s⁻¹ | 1.63e+06 M⁻¹ s⁻¹ | – | IC50 (nM), in vitro cytotoxicity, HCC38 cells [4]: > 100 nM; IC50 (nM), in vitro cytotoxicity, MDA-MB-468 cells [4]: > 100 nM
B3 | – | – | – | – | – | – | – | Kd [5]: 400 pM; koff [5]: 0.000204 s⁻¹; kon [5]: 511000 M⁻¹ s⁻¹
B4 | – | – | – | – | – | – | binds | –
B5 | – | – | – | – | – | – | binds | –
